In paper PMC8938308 (Human genetics, 2021):

Target: sodium/potassium-transporting ATPase ATP1A3, F309S mutant, V5-tagged (human, UniProt P13637-3 1-1026, F309S)
Assay: co-IP

B1: TOMM22, GFP-tagged (natural protein, UniProt Q9NS69 1-142, looked up)
chain: MAAAVAAAGAGEPQSPDELLPKGDAEKPEEELEEDDDEELDETLSERLWGLTEMFPERVRSAAGATFDLSLFVAQKMYRFSRAALWIGTTSFMILVLPVVFETEKLQMEQQQQLQQRQILLGPNTGLSGGMPGALPSLPGKI
- reduction of the interaction against WT ATP1A3: ~50%
